{"source": "paper PMC10521137", "biological_target": "Rad53 FHA1 domain, 1-165 (UniProt P22216)", "test": "biotin-peptide streptavidin pulldown, Coomassie stain", "conditions": "reference: unphosphorylated peptide (peptide 1); sites T402", "data": [{"substance": "Pol1 (catalytic subunit of DNA polymerase alpha) 393-412 (from UniProt P13382) pT402 peptide (peptide 2)", "values": [{"measurement": "binding against the reference", "value": "gained"}]}]}
